# Reference: the Immune Epitope Database (IEDB)
# Target: HLA-A*02:01
# Assay: IEDB peptide-MHC binding, purified MHC/competitive/radioactivity; ≥ and ≤ were set here for values at or beyond the usual limits of such assays
# [1] = source organism: Human gammaherpesvirus 8
Sequence,IC50 [1],IC50 (source organism: Homo sapiens)
HLDFWHHEV,20 nM,–
TLGTVILLV,–,60 nM
GALLPGNLV,500 nM,–
LLGTWMFSV,3 nM,–
SLVTGFINFI,238 nM,–
RIFYNILEI,62 nM,–
ALIGTMCGI,33 nM,–
RLYQASAVM,277 nM,–
ALIGTMCGIL,416 nM,–
ITATFTAPL,38 nM,–
FVAVHPVDV,19 nM,–
ATLGTVILL,178 nM,–
KLLGTWMFSV,3 nM,–
SVSDFDLRI,416 nM,–
FKNSSNLFT,64 nM,–
QLASILGCVD,312 nM,–
RLGAIPPLV,333 nM,–
FIALNLSFI,78 nM,–
SVDFYQFRV,312 nM,–
FLYVVCSLA,4 nM,–
RLSNRICFWA,384 nM,–
